Test results reported in US10513545B2, “Fusion polypeptide in which anti-inflammatory polypeptide and ferritin monomer fragment are bound and pharmaceutical composition for preventing and treating inflammatory diseases, containing same as active ingredient” (KYUNGPOOK NATIONAL UNIVERSITY INDUSTRY-ACADEMIC COOPERATION …, priority 2015, dated 2019).

Experiments:
[1] = tested on: endothelial cells; assay: in vivo binding to endothelial cells (intravenously injected mice, isolated mouse endothelial cells); conditions: mouse animal model, FIG. 12B
Excerpt: The endothelial cells were isolated according to the manufacturer's (Dynal Biotec, Lake Success, N.Y.) instructions, using Dynabeads coupled to anti-CD31 antibody and the Dynal Magnetic holder. Briefly, for endothelial cell isolation, four to six mice (6-10 weeks old) were anesthetized, followed by exposure of the peritoneal cavity. Excised lungs and hearts were put into RPMI media, followed by removing other tissues from the heart and lungs, and then rinsing once in PBS. The lungs and heart were incubated with 1.0 mg/mL of collagenase A in a 50 mL tube for 1 h at around 37° C. Every 5 min during this incubation, the tube was gently agitated for a few seconds, and then the suspension was transferred into a new 50 mL tube by passing it through the 70 um tissue sieve (BD Falcon). The filtered cell suspension was centrifuged for 10 min at 1000 rpm. After removal of the supernatant, the cell pellet was washed once with cold PBS in a new 15-mL tube. […]
A direct cell-binding assay was performed on HUVECs and in vivo using fluorescence labeled-PC-Gla, TFG, and TFMG. […] The fluorescence value of the HUVECs or endothelial cells were measured with tightly bound PC-Gla, TFG, and TFMG, respectively. The concentrations of PC-Gla, TFG, and TFMG were measured by using the nanoparticle ratio of fluorescent dye per protein.

[2] = target: T1, soluble EPCR (sEPCR) (Homo sapiens, UniProt Q9UNN8); assay: solid-phase ELISA for binding affinity to soluble EPCR; conditions: FIG. 9, read-out: Kd(app) for the interaction with sEPCR
T1 construct: 96-well flat microtiter plates were coated with soluble EPCR
T1 sequence (Q9UNN8 18-210 limits assumed): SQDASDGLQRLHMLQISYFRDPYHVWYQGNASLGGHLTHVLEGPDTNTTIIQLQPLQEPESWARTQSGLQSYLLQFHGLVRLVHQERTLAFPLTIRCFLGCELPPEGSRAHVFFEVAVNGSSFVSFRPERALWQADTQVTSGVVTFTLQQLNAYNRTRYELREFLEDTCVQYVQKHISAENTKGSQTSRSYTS
Description: 9. Enzyme-Linked Immunosorbent Assays (ELISA) for Evaluating EPCR (Endothelial Protein C Receptor) Binding Affinity
To evaluate the interaction of the wild-type PC, PC-Gla peptides, TFG, and TFMG with EPCR, 96-well flat microtiter plates were coated with soluble EPCR in 20 mM carbonate-bicarbonate buffer (pH 9.6) containing 0.02% sodium azide, overnight at 4° C. After the plates were washed three times in TBS buffer (0.1 M NaCl, 0.02 M Tris-HCl, pH 7.4) containing 0.05% Tween 20, the plates were incubated with wild-type PC, PC-Gla peptides, TFG, and TFMG (7-1000 nM) diluted in the buffer for 1 h. After the plates were rinsed again, they were incubated with a goat anti-protein C polyclonal antibody (1:1000) for 1 h. Then, the plates were washed and incubated with rabbit anti-goat IgG (KPL, MD, 1:1000) for 1 h. After washing, the plates were incubated with 2,2′-azino-di(3-ethylbenzthiazoline-6-sulfonate) (ABTS; KPL, Gaithersburg, Md.). Colorimetric analysis was performed by measuring absorbance values at 405 nm.

[3] = target: T2, MMP-2 (Homo sapiens, UniProt P08253); assay: cleavage of nanocaged TFMG by activated MMP-2; format: biochemical; conditions: p-aminophenylmercuric acetate-activated MMP-2, FIG. 6-8
T2 sequence (P08253 110-660): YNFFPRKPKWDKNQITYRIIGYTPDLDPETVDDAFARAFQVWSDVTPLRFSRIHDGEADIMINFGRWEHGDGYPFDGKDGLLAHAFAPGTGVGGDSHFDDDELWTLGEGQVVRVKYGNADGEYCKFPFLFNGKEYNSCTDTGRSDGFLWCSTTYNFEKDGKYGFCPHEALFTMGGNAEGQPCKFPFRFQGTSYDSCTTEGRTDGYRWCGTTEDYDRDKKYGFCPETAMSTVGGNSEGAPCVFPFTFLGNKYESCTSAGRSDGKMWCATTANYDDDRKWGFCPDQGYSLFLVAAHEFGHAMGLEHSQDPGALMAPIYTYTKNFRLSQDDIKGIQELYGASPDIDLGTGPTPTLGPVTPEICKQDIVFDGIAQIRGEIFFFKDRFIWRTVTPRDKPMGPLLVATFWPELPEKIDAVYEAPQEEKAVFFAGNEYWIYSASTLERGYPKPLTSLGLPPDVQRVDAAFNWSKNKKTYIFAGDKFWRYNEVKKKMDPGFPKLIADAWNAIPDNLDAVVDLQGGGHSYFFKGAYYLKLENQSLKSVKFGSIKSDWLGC
Description: To evaluate whether TFMG could be selectively cleaved by MMP2, TFMG was incubated with APMA-mediated activated MMP-2 in PBS at 37° C. for 3 h. The cleaved fragments of TFMG were detected by MALDI-ToF.

B1: TFMG: as TFG with an MMP-2 cleavable linker (GPLGLAG) between ferritin fragment C-terminus and PC-Gla (apparently SEQ ID NO: 15) (protein)
chain: MGGTTFLLRNASGHMSSQIRQNYSTDVEAAVNSLVNLYLQASYTYLSLGFYFDRDDVALEGVSHFFRELAEEKREGYERLLKMQNQRGGRIFLQDIKKPAEDEWGKTPDAMKAAMALEKKLNQALLDLHALGSARTDPHLCDFLETHFLDEEVKLIKKMGDHLTNLHRLGGGSEFVDGGGSGTSGPLGLAGANSFLEELRHSSLERECIEEICDFEEAKEIFQNVDDTLAFWSKHVLEHHHHHH
modifications: Fusion polypeptide (2)
[1]
  in vivo binding to endothelial cells compared with PC-Gla: bound more strongly to, and stayed longer on, endothelial cells than PC-Gla did
[2]
  Kd: 307 nM
[3]
  release of PC-Gla by linker cleavage with MMP-2: continuously released PC-Gla

B2: TFG: fusion polypeptide: TRAP at N-terminus and PC-Gla at C-terminus of short ferritin monomer fragment, forms nanocage (apparently SEQ ID NO: 14) (protein)
chain: MGGTTFLLRNASGHMSSQIRQNYSTDVEAAVNSLVNLYLQASYTYLSLGFYFDRDDVALEGVSHFFRELAEEKREGYERLLKMQNQRGGRIFLQDIKKPAEDEWGKTPDAMKAAMALEKKLNQALLDLHALGSARTDPHLCDFLETHFLDEEVKLIKKMGDHLTNLHRLGGGSEFVDGGGSGTSANSFLEELRHSSLERECIEEICDFEEAKEIFQNVDDTLAFWSKHVLEHHHHHH
modifications: Fusion polypeptide (1)
[1]
  in vivo binding to endothelial cells compared with PC-Gla: bound more strongly to, and stayed longer on, endothelial cells than PC-Gla did
